Laboratory results reported in patent US20200392203A1 (YEDA RESEARCH AND DEVELOPMENT, published 2020).

Columns and labels:
[1] = biological target: native spike complex (glycoprotein complex, GPC) of Sabia virus (SABV) (Sabia virus (SABV))
[2] = biological target: native spike complex (glycoprotein complex, GPC) of Junin virus (JUNV) (Junin virus (JUNV))
[3] = biological target: GP1GTOV-Fc (GP1 domain of Guanarito virus fused at its C' terminus to an antibody Fc portion) (Guanarito virus (GTOV)) (UniProt Q8AYW1); assay: SPR (Biacore T200), single-cycle kinetics; […]; 1:1 model fit
Chain of GP1GTOV-Fc (GP1 domain of Guanarito virus fused at its C' terminus to an antibody Fc portion) (Guanarito virus (GTOV)) (Q8AYW1 87-240): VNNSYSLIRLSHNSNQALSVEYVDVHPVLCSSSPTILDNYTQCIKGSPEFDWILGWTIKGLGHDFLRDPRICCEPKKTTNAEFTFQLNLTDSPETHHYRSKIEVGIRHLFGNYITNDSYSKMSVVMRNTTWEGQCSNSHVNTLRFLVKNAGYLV

[4] = biological target: GP1WWAV-Fc (GP1 domain of Whitewater Arroyo virus fused at its C' terminus to an antibody Fc portion) (Whitewater Arroyo virus (WWAV)) (UniProt Q911P0); assay: SPR (Biacore T200), single cycle kinetics; […]; 1:1 model
Chain of GP1WWAV-Fc (GP1 domain of Whitewater Arroyo virus fused at its C' terminus to an antibody Fc portion) (Whitewater Arroyo virus (WWAV)) (Q911P0 87-241): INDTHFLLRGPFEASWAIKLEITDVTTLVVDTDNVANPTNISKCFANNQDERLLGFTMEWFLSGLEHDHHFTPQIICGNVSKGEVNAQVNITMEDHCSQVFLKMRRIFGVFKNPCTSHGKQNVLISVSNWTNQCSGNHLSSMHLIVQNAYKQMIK

Chain of native spike complex (glycoprotein complex, GPC) of Sabia virus (SABV) (Sabia virus (SABV)) (Q90037 2-58, chain 1 of 3): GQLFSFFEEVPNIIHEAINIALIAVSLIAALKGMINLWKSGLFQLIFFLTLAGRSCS
Chain of native spike complex (glycoprotein complex, GPC) of Sabia virus (SABV) (Sabia virus (SABV)) (Q90037 59-254, chain 2 of 3): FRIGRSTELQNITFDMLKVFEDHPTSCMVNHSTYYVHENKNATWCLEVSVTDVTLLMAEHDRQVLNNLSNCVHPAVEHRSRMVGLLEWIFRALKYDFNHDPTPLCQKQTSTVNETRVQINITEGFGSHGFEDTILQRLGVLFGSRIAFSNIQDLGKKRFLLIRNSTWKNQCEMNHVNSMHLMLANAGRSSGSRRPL
Chain of native spike complex (glycoprotein complex, GPC) of Sabia virus (SABV) (Sabia virus (SABV)) (Q90037 255-488, chain 3 of 3): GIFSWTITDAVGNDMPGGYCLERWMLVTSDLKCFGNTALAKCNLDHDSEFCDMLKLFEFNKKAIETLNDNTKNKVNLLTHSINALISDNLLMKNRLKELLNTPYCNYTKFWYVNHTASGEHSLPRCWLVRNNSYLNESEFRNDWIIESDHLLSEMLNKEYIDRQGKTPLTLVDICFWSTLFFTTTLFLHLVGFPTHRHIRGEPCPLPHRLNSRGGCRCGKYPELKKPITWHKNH
Chain of native spike complex (glycoprotein complex, GPC) of Junin virus (JUNV) (Junin virus (JUNV)) (P26313 2-58 limits assumed, chain 1 of 3): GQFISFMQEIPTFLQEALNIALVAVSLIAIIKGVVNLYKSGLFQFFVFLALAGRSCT
Chain of native spike complex (glycoprotein complex, GPC) of Junin virus (JUNV) (Junin virus (JUNV)) (P26313 59-251 limits assumed, chain 2 of 3): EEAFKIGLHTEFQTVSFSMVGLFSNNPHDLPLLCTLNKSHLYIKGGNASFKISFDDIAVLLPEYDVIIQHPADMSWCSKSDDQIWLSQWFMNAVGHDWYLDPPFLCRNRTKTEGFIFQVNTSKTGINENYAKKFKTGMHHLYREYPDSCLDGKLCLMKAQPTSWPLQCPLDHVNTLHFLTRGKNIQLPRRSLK
Chain of native spike complex (glycoprotein complex, GPC) of Junin virus (JUNV) (Junin virus (JUNV)) (P26313 252-485 limits assumed, chain 3 of 3): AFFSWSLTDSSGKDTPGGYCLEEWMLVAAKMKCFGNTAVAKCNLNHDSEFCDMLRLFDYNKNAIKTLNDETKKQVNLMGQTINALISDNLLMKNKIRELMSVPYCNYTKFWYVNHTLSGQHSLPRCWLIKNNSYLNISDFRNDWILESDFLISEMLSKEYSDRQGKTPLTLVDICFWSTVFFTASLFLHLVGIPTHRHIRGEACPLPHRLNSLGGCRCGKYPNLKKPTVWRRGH

Row | Molecule | pseudovirus neutralisation (luciferase, hTfR1-overexpressing HEK293 cells), IC50 [1] | pseudovirus neutralisation (luciferase, hTfR1-overexpressing HEK293 cells), IC50 [2] | Kd [3] | Kd [4]
1 | Arenacept (sAD fused at its C'-terminus to an Fc portion of IgG1) (Fc fusion) | 3.5 µg/mL | 1.5 µg/mL |  | 
2 | soluble apical domain (sAD) of Neotoma albigula (White-throated woodrat) TfR1 (receptor) GSKIQVKCSAPNSVTITNASGGLYLVEYPEGYVAYSKATEVTGKLVHANFGTKKDFEDLDYAVNGSIVIVRAGKITIAEKVANAQSFNAIGVLIYKDRTKYPISRADEPLQGHSGLPSIPVQTISREAAEKLFQNMERDCPRSWNTDSSCKLELLQNRNVKLTVNNCLKE |  |  | 360 nM | 1000 nM
